Laboratory results taken from article PMC10388305, “Synthesis and Evaluation of a Monomethyl Auristatin E—Integrin αvβ6 Binding Peptide–Drug Conjugate for Tumor Targeted Drug Delivery” (Journal of Medicinal Chemistry, 2023).
Read-outs that look alike come from different tables or passages of the source.

Columns and labels:
[1] = Serum stability in human serum; assay type: in vitro ADME; settings: 37 °C, ethanol precipitation, radio RP-HPLC
Description: (§1) The serum stability of [^64Cu]PDC-1 was measured in both human and mouse serum at 37 °C at 1, 4, and 24 h.
(§2) Mouse serum or human serum (0.5 mL) was combined with an aliquot of [^64Cu]PDC-1 (≤25 μL, 3.9–4.7 MBq) and incubated at 37 °C. At each time point (1, 4, and 24 h), an aliquot (50–200 μL) was taken, proteins precipitated with absolute ethanol and removed by centrifugation at 1500g for 4 min. The ethanol solution was diluted with water (1 mL) and analyzed by RP-HPLC.

[2] = Serum stability in mouse serum; assay type: in vitro ADME; settings: 37 °C, ethanol precipitation, radio RP-HPLC
Description: as §1, §2

[3] = Blocking biodistribution, BxPC-3 model; assay type: in vivo, mice; settings: female, athymic nude, mouse, iv, total radioactivity, 4 h p.i., DOTA-2 (50 mg/kg, 205 nmol) i.v. 10 min prior, γ-counter, mean ± SD, n = 2
Description: Aliquots of the formulated [^64Cu]PDC-1 in isotonic 0.9% saline (4.81–5.74 MBq, 1.7–2.1 μg, 0.26–0.31 nmol, 100 μL, pH 7.2) were injected i.v. as described above. Following the conscious uptake period, the mice were anesthetized (5% isoflurane), euthanized, and dissected (n ≥ 3/model/time point [4, 24, and 48 h]; the 48 h time point also included the imaging animals sacrificed after the PET scans). Tissues were collected, washed, weighed, and radioactivity measured in a γ-counter. Calibrated, decay-corrected radioactivity was expressed as the percentage of injected dose per gram of tissue (% ID/g). Data are reported as mean ± SD. The mean weights and standard deviation of the DX3puroβ6/DX3puro paired tumor model biodistribution mice were 24.3 ± 1.4 g at 4 h, 28.2 ± 2.9 g at 24 h, and 27.7 ± 2.6 g at 48 h. The mean weights and standard deviation of the BxPC-3 tumor model biodistribution mice were 25.1 ± 1.9 g at 4 h, 27.0 ± 1.1 g at 24 h and 27.1 ± 3.2 g at 48 h. For in vivo blocking studies, DOTA-2 (50 mg/kg, 205 nmol, 1.4 mg in 100 μL 0.9% saline) was injected i.v. into two animals/tumor model 10 min prior to [^64Cu]PDC-1. The animals were sacrificed after 4 h, tissues collected, washed, weighed, and radioactivity measured in a γ-counter. The mean weights and standard deviation for the blocking mice were 24.6 ± 0 and 27.9 ± 0.3 g for the DX3puroβ6/DX3puro paired and BxPC-3 tumor models, respectively.
Blocking biodistribution data of [64Cu]PDC-1 in paired DX3puroβ6/DX3puro and BxPC-3 tumor models.
Tumor Model DX3puroβ6/DX3puro BxPC-3
Table S6. Blocking biodistribution data of [ 64Cu]PDC-1 in paired DX3puroβ6/DX3puro and BxPC-3 tumor
models. Tissue uptake is expressed as the mean of the percentage of injected dose per gram of tissue ±
SD (n = 2/model, n/a = not applicable. P = 0.53 for DX3puroβ6 vs. DX3puro; P = 0.52 for BxPC-3 vs.

[4] = Biodistribution, both tumor models; assay type: in vivo, mice; settings: female, athymic nude, mouse, iv, total radioactivity; for tissue uptake: all time points
Description: (§3) Aliquots of the formulated [^64Cu]PDC-1 in isotonic 0.9% saline (4.81–5.74 MBq, 1.7–2.1 μg, 0.26–0.31 nmol, 100 μL, pH 7.2) were injected i.v. as described above. Following the conscious uptake period, the mice were anesthetized (5% isoflurane), euthanized, and dissected (n ≥ 3/model/time point [4, 24, and 48 h]; the 48 h time point also included the imaging animals sacrificed after the PET scans). Tissues were collected, washed, weighed, and radioactivity measured in a γ-counter. Calibrated, decay-corrected radioactivity was expressed as the percentage of injected dose per gram of tissue (% ID/g). Data are reported as mean ± SD. […] For in vivo blocking studies, DOTA-2 (50 mg/kg, 205 nmol, 1.4 mg in 100 μL 0.9% saline) was injected i.v. into two animals/tumor model 10 min prior to [^64Cu]PDC-1. The animals were sacrificed after 4 h, tissues collected, washed, weighed, and radioactivity measured in a γ-counter.

[5] = system: DX3puroβ6/DX3puro and BxPC-3 xenograft tumor models; assay: Biodistribution, both tumor models; assay type: in vivo, mice; settings: DOTA-2 (205 nmol) 10 min prior; 4 h p.i.; both models
Description: as §3

## CC[C@H](C)[C@@H]([C@@H](CC(=O)N1CCC[C@H]1[C@H](OC)[C@@H](C)C(=O)N[C@H](C)[C@@H](O)c1ccccc1)OC)N(C)C(=O)[C@@H](NC(=O)[C@H](C(C)C)N(C)C(=O)OCc1ccc(NC(=O)[C@H](CCCNC(N)=O)NC(=O)[C@@H](NC(=O)CCOCCOCCNC(=O)CCN2C(=O)CC(SC[C@H](NC(=O)CN3CCN(CC(=O)O)CCN(CC(=O)O)CCN(CC(=O)O)CC3)C(=O)NCCOCCOCCOCCOCCOCCOCCOCCOCCOCCOCCOCCOCCOCCOCCOCCOCCOCCOCCOCCOCCOCCOCCOCCOCCOCCOCCOCCOCCC(=O)N[C@@H](CC(N)=O)C(=O)N[C@@H](C)C(=O)N[C@H](C(=O)N3CCC[C@H]3C(=O)N[C@@H](CC(N)=O)C(=O)N[C@@H](CC(C)C)C(=O)N[C@@H](CCCNC(=N)N)C(=O)NCC(=O)N[C@@H](CC(=O)O)C(=O)N[C@@H](CC(C)C)C(=O)N[C@@H](CCC(N)=O)C(=O)N[C@H](C(=O)N[C@@H](CC(C)C)C(=O)N[C@@H](C)C(=O)N[C@@H](CCC(N)=O)C(=O)N[C@@H](CCCNC(=N)N)C(=O)N[C@H](C(=O)N[C@@H](C)C(=O)N[C@@H](CCCNC(=N)N)C(=O)N[C@H](C(=O)NCCOCCOCCOCCOCCOCCOCCOCCOCCOCCOCCOCCOCCOCCOCCOCCOCCOCCOCCOCCOCCOCCOCCOCCOCCOCCOCCOCCOCCC(N)=O)[C@@H](C)O)C(C)C)C(C)C)C(C)C)C2=O)C(C)C)cc1)C(C)C (stereo partly drawn) [[^64Cu]PDC-1, metal not drawn]
[1]; 1 h
  remaining at 1 h: > 98%
[1]; 4 h
  remaining at 4 h: > 98%
[1]; 24 h
  remaining at 24 h: 89%
[2]; 1 h
  remaining at 1 h: 89%
[2]; 4 h
  remaining at 4 h: 49%
[2]; 24 h
  remaining at 24 h: 3%
[3]; BxPC-3 (αvβ6 +) tumor, read-out: Tumor (αvβ6 +) BxPC-3 uptake, blocked
  tissue uptake at 4 h: 0.61 ± 0.05 %ID/g
[3]; blood, read-out: Blood uptake, blocked
  tissue uptake at 4 h: 0.1 ± 0.02 %ID/g
[3]; bone, read-out: Bone uptake, blocked
  tissue uptake at 4 h: 0.14 ± 0.03 %ID/g
[3]; brain, read-out: Brain uptake, blocked
  tissue uptake at 4 h: 0.01 ± 0.01 %ID/g
[3]; gall bladder, read-out: Gall Bladder uptake, blocked
  tissue uptake at 4 h: 0.94 ± 0.35 %ID/g
[3]; heart, read-out: Heart uptake, blocked
  tissue uptake at 4 h: 0.21 ± 0.06 %ID/g
[3]; kidney, read-out: Kidney uptake, blocked
  tissue uptake at 4 h: 25.7 ± 2.55 %ID/g
[3]; large intestines, read-out: Large Intestines uptake, blocked
  tissue uptake at 4 h: 0.47 ± 0.08 %ID/g
[3]; liver, read-out: Liver uptake, blocked
  tissue uptake at 4 h: 1.01 ± 0.16 %ID/g
[3]; lung, read-out: Lung uptake, blocked
  tissue uptake at 4 h: 0.51 ± 0.16 %ID/g
[3]; muscle, read-out: Muscle uptake, blocked
  tissue uptake at 4 h: 0.07 ± 0.01 %ID/g
[3]; pancreas, read-out: Pancreas uptake, blocked
  tissue uptake at 4 h: 0.12 ± 0.01 %ID/g
[3]; skin, read-out: Skin uptake, blocked
  tissue uptake at 4 h: 0.31 ± 0.02 %ID/g
[3]; small intestines, read-out: Small Intestines uptake, blocked
  tissue uptake at 4 h: 0.51 ± 0.09 %ID/g
[3]; spleen, read-out: Spleen uptake, blocked
  tissue uptake at 4 h: 0.22 ± 0.03 %ID/g
[3]; stomach, read-out: Stomach uptake, blocked
  tissue uptake at 4 h: 0.38 ± 0.04 %ID/g
[4]; faeces, 4 h, read-out: Fecal matter
  excreta dose per gram or mL at 4 h: 12 %ID/g
[4]; faeces, 48 h, read-out: Fecal matter
  excreta dose per gram or mL at 48 h: 1.5 %ID/g
[4]; kidney, 4 h, both models, read-out: Kidney uptake
  tissue uptake at 4 h: 50 to 64 %ID/g
[4]; kidney, 48 h, both models, read-out: Kidney uptake
  tissue uptake at 48 h: ≤ 25 %ID/g
[4]; large intestines, 4 h, read-out: Large intestines uptake
  tissue uptake at 4 h: 6 %ID/g
[4]; large intestines, 48 h, read-out: Large intestines uptake
  tissue uptake at 48 h: 3 %ID/g
[4]; muscle, read-out: Muscle uptake
  tissue uptake: ≤ 0.9 %ID/g
[4]; pancreas, read-out: Pancreas uptake
  tissue uptake: ≤ 0.5 %ID/g
[4]; small intestines, 4 h, read-out: Small intestines uptake
  tissue uptake at 4 h: 4 to 5 %ID/g
[4]; stomach, 4 h, read-out: Stomach uptake
  tissue uptake at 4 h: 9 %ID/g
[5]
  Reduction of uptake in the αvβ6 (+) tumors by blocking: 87–91%
